# Molecular target: CsrA-3xFLAG (Escherichia coli) (UniProt P69913)
# Assay: competition
# Settings: competitor conc. that fully displaces labeled RrBshort (120 pM) from 200 nM CsrA; CsrA EMSA: 100 mM KCl, 10 mM MgCl2, 2 mM DTT, 7.5% glycerol, 2 ng total yeast RNA, 120 pM RNA, 10 min 37 C, 8% native PAGE in 1x TBE (pH not stated); Hfq EMSA: …
# Sequence of CsrA-3xFLAG (Escherichia coli) (P69913 whole entry): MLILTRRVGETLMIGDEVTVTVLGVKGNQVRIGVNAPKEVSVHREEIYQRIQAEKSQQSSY
substance,measurement,value
CsrB,binding signal,3.13 nM

# Source: publication PMC8144298
